Target: the molecule itself
Assay: cryo-EM structure

B1: full-length human NCBE (Na+-dependent Cl-/HCO3- exchanger, SLC4A10) (natural protein, UniProt Q6U841 1-1118, looked up)
chain: MEIKDQGAQMEPLLPTRNDEEAVVDRGGTRSILKTHFEKEDLEGHRTLFIGVHVPLGGRKSHRRHRHRGHKHRKRDRERDSGLEDGRESPSFDTPSQRVQFILGTEDDDEEHIPHDLFTELDEICWREGEDAEWRETARWLKFEEDVEDGGERWSKPYVATLSLHSLFELRSCILNGTVLLDMHANTLEEIADMVLDQQVSSGQLNEDVRHRVHEALMKQHHHQNQKKLTNRIPIVRSFADIGKKQSEPNSMDKNAGQVVSPQSAPACVENKNDVSRENSTVDFSKGLGGQQKGHTSPCGMKQRHEKGPPHQQEREVDLHFMKKIPPGAEASNILVGELEFLDRTVVAFVRLSPAVLLQGLAEVPIPTRFLFILLGPLGKGQQYHEIGRSIATLMTDEVFHDVAYKAKDRNDLVSGIDEFLDQVTVLPPGEWDPSIRIEPPKNVPSQEKRKIPAVPNGTAAHGEAEPHGGHSGPELQRTGRIFGGLILDIKRKAPYFWSDFRDAFSLQCLASFLFLYCACMSPVITFGGLLGEATEGRISAIESLFGASMTGIAYSLFGGQPLTILGSTGPVLVFEKILFKFCKEYGLSYLSLRASIGLWTATLCIILVATDASSLVCYITRFTEEAFASLICIIFIYEALEKLFELSEAYPINMHNDLELLTQYSCNCVEPHNPSNGTLKEWRESNISASDIIWENLTVSECKSLHGEYVGRACGHDHPYVPDVLFWSVILFFSTVTLSATLKQFKTSRYFPTKVRSIVSDFAVFLTILCMVLIDYAIGIPSPKLQVPSVFKPTRDDRGWFVTPLGPNPWWTVIAAIIPALLCTILIFMDQQITAVIINRKEHKLKKGCGYHLDLLMVAVMLGVCSIMGLPWFVAATVLSITHVNSLKLESECSAPGEQPKFLGIREQRVTGLMIFILMGSSVFMTSILKFIPMPVLYGVFLYMGASSLKGIQFFDRIKLFWMPAKHQPDFIYLRHVPLRKVHLFTIIQMSCLGLLWIIKVSRAAIVFPMMVLALVFVRKLMDLLFTKRELSWLDDLMPESKKKKLEDAEKEEEQSMLAMEDEGTVQLPLEGHYRDDPSVINISDEMSKTALWRNLLITADNSKDKESSFPSKSSPS
stoichiometry N: 2
